Our source for the self-cleavage values is the RNAGym collection of RNA variant scans (doi:10.7554/elife.80360).

B1: CPEB3 Ribozyme (parent)
chain: GGGGGCCACAGCAGAAGCGUUCACGUCGCGGCCCCUGUCAGAUUCUGGUGAAUCUGCGAAUUCUGCUGU

This data set covers variants of B1. Kind of data set: self-cleavage, relative activity (ratio to wild type); higher = more cleavage; co-transcriptional.
Consider G1U U43A, for which the self-cleavage worked out at 0.0877.

Regarding G1U C24G, the self-cleavage is 0.0268.

For G2A A59C, the self-cleavage was found to be 0.0548.

Take G2A A59G: the self-cleavage was 0.129.

As for G2A A59U, the self-cleavage stood at 0.0616.

With G1U G41A, the self-cleavage is 0.123.

For the variant G1U G41C, the self-cleavage came to 0.036.

Turning to G1U G41U, the self-cleavage turned out to be 0.116.

Consider G1U A40C, for which the self-cleavage stood at 0.0668.

For the variant G2A C22U, the self-cleavage came to 0.051.

Consider G2A C22G, for which the self-cleavage was found to be 0.0504.

For G2A C24G, the self-cleavage came to 0.0162.

As for G2A G3U, the self-cleavage was 0.0425.

G2A G3A: the self-cleavage was determined as 0.0827.

Regarding G2A G3C, the self-cleavage is 0.176.

As for G1U U20A, the self-cleavage was 0.042.

With G2A G48U, the self-cleavage is 0.215.

With G2A G48A, the self-cleavage stood at 0.213.

As for G2A G48C, the self-cleavage was determined as 0.227.

For the variant G1C G58C, the self-cleavage amounted to 0.267.

On to G1C G58A, for which the self-cleavage worked out at 0.172.

As to G1C G58U, the self-cleavage was 0.248.

Consider G2A A40U, for which the self-cleavage was determined as 0.0585.

For the variant G2A A16U, the self-cleavage came to 0.1.

Turning to G2A C33A, the self-cleavage was 0.0406.

G2A C33U: the self-cleavage worked out at 0.0941.

As to G1U A60C, the self-cleavage came to 0.0797.

For the variant G1U U61G, the self-cleavage amounted to 0.208.

For the variant G1U U61A, the self-cleavage is 0.0989.

As for G2A U26A, the self-cleavage is 0.11.

For the variant G2A U26C, the self-cleavage is 0.114.

Consider G2A U26G, for which the self-cleavage was 0.0691.

Take G2A: the self-cleavage is 0.216.

For the variant G2C, the self-cleavage came to 0.0678.

With G1U G47A, the self-cleavage came to 0.117.

On to G1U G47U, for which the self-cleavage is 0.14.

Turning to G2A C54A, the self-cleavage came out at 0.112.

Take G2A C54U: the self-cleavage is 0.152.

With G2A G28A, the self-cleavage is 0.0492.

Consider G2A G28U, for which the self-cleavage was 0.0733.

With G1C G48U, the self-cleavage is 0.241.

Turning to G1U U36C, the self-cleavage amounted to 0.102.

As for G1U U36G, the self-cleavage was found to be 0.0723.

In the case of G1U C7G, the self-cleavage stood at 0.127.

For G1U C7A, the self-cleavage was determined as 0.0722.

With G1C U61G, the self-cleavage was determined as 0.271.

Turning to G1C U61C, the self-cleavage came to 0.141.

G1U C12G: the self-cleavage came out at 0.106.

In the case of G1U C12U, the self-cleavage is 0.124.

For G2A C29G, the self-cleavage was determined as 0.0351.

In the case of G2A C29A, the self-cleavage stood at 0.0397.

Turning to G2A C29U, the self-cleavage was found to be 0.0474.

For G1U G3A, the self-cleavage turned out to be 0.04.

Take G1U G3C: the self-cleavage was found to be 0.0566.

With G1U G3U, the self-cleavage stood at 0.0448.

With G2A G14A, the self-cleavage came to 0.0649.

Turning to G2A G14U, the self-cleavage came to 0.0746.

With G2A G14C, the self-cleavage amounted to 0.075.

Turning to G2A A13G, the self-cleavage was 0.129.

As for G2A A13C, the self-cleavage amounted to 0.109.

In the case of G2A U46C, the self-cleavage worked out at 0.13.

Turning to G2A U46A, the self-cleavage was determined as 0.202.

Turning to G2A U46G, the self-cleavage was 0.135.

As for G1U U53A, the self-cleavage was 0.0914.

With G1U U53G, the self-cleavage was 0.101.

On to G1U C34A, for which the self-cleavage was determined as 0.184.

Regarding G1U C34G, the self-cleavage is 0.123.

Take G1U G11A: the self-cleavage is 0.0662.

G1C U43A: the self-cleavage turned out to be 0.202.

On to G1C U43C, for which the self-cleavage stood at 0.245.

Consider G1C U43G, for which the self-cleavage is 0.205.

For G2A A42C, the self-cleavage stood at 0.0844.

In the case of G2A A42U, the self-cleavage is 0.0966.

For G1U G31C, the self-cleavage turned out to be 0.0835.

In the case of G1U G31U, the self-cleavage came out at 0.0933.

On to G1U G31A, for which the self-cleavage worked out at 0.0918.

In the case of G2A C39A, the self-cleavage amounted to 0.032.

For G2A C39U, the self-cleavage was determined as 0.072.

Regarding G2A G68A, the self-cleavage is 0.445.

In the case of G2A G68C, the self-cleavage was 0.335.

Consider G1U C18G, for which the self-cleavage is 0.115.

As to G1U C18U, the self-cleavage amounted to 0.104.

On to G2A U55A, for which the self-cleavage came to 0.109.

Turning to G2A U55G, the self-cleavage worked out at 0.0739.

Take G2A U55C: the self-cleavage was found to be 0.0545.

Turning to G1U G19A, the self-cleavage was found to be 0.0502.

As for G1C U21C, the self-cleavage worked out at 0.184.

Turning to G1C U21G, the self-cleavage turned out to be 0.244.

G2A U69A: the self-cleavage was 0.256.

On to G2A U69G, for which the self-cleavage came to 0.335.

As for G2A U62A, the self-cleavage worked out at 0.11.

For the variant G2A U62G, the self-cleavage worked out at 0.129.

On to G2A U62C, for which the self-cleavage worked out at 0.146.

In the case of G2A G25U, the self-cleavage worked out at 0.0625.

As for G2A G25C, the self-cleavage worked out at 0.0386.

On to G1U C45G, for which the self-cleavage came to 0.134.

On to G1U C45U, for which the self-cleavage was 0.152.

As to G1C U44G, the self-cleavage was found to be 0.151.

On to G1C U44A, for which the self-cleavage came to 0.231.

For G1U A8U, the self-cleavage is 0.0804.

Take G1U A8C: the self-cleavage is 0.0263.

With G1C U26C, the self-cleavage came to 0.162.

Regarding G1C U26G, the self-cleavage worked out at 0.152.

In the case of G2A G30A, the self-cleavage worked out at 0.0606.

As for G2A G30U, the self-cleavage stood at 0.058.

Consider G2A G30C, for which the self-cleavage is 0.0605.

On to G1U C29U, for which the self-cleavage was found to be 0.0573.

Consider G1U C29G, for which the self-cleavage amounted to 0.0597.

With G1U C29A, the self-cleavage came to 0.111.

For G1U U67C, the self-cleavage came to 0.0935.

With G1U U67G, the self-cleavage is 0.204.

As for G1U U67A, the self-cleavage came out at 0.167.

On to G1U C6G, for which the self-cleavage was 0.126.

Turning to G1U C6A, the self-cleavage was 0.0884.

Take G1U C6U: the self-cleavage stood at 0.0906.

As to G2A A60C, the self-cleavage amounted to 0.0397.

In the case of G1U C33A, the self-cleavage stood at 0.176.

On to G1C U38C, for which the self-cleavage was found to be 0.231.

For G1C U38G, the self-cleavage amounted to 0.112.

With G1U C54A, the self-cleavage amounted to 0.116.

As to G1U C54G, the self-cleavage was determined as 0.099.

Turning to G1U A23U, the self-cleavage came to 0.108.

For G1U C57G, the self-cleavage worked out at 0.0901.

With G1U C57U, the self-cleavage is 0.0565.

As to G1C G65U, the self-cleavage was 0.212.

For the variant G1U G4U, the self-cleavage turned out to be 0.127.

Regarding G1U G4C, the self-cleavage was 0.0734.

As for G1U G4A, the self-cleavage was found to be 0.112.

As to G2A G50C, the self-cleavage is 0.154.

As to G2A G50A, the self-cleavage is 0.177.

As to G2A G50U, the self-cleavage was 0.173.

G1U C27A: the self-cleavage came out at 0.0657.

In the case of G1U C27G, the self-cleavage was 0.0589.

As to G2A C6A, the self-cleavage was 0.044.

For G2A C6U, the self-cleavage was 0.0868.

As to G2A C6G, the self-cleavage was 0.0574.

As for G1U C9G, the self-cleavage worked out at 0.233.

For G1U C9U, the self-cleavage was 0.219.

As for G2A U20G, the self-cleavage was 0.0568.

Regarding G1U U26C, the self-cleavage turned out to be 0.0437.

Turning to G1U C35A, the self-cleavage was 0.0801.

With G1U C35U, the self-cleavage came out at 0.113.

As for G1U U46A, the self-cleavage stood at 0.123.

Regarding G1U U46G, the self-cleavage amounted to 0.0728.

With G2A U64A, the self-cleavage is 0.115.

In the case of G2A U64C, the self-cleavage was determined as 0.0804.

Turning to G2A U64G, the self-cleavage was found to be 0.0844.

Turning to G2A C27U, the self-cleavage came to 0.0441.

Regarding G2A C27G, the self-cleavage came to 0.0739.

Regarding G2A C27A, the self-cleavage turned out to be 0.0442.

G1U U49C: the self-cleavage was determined as 0.0511.

With G1U U49G, the self-cleavage was 0.152.

G1U U49A: the self-cleavage is 0.124.

Regarding G1C G56A, the self-cleavage is 0.223.

In the case of G1C G56C, the self-cleavage stood at 0.186.

As for G2A U49C, the self-cleavage was 0.21.

Take G2A U49G: the self-cleavage was 0.149.

As to G2A C34A, the self-cleavage was 0.0453.

On to G2A C34U, for which the self-cleavage was found to be 0.106.

Turning to G1C U20G, the self-cleavage stood at 0.131.

G1C U20C: the self-cleavage is 0.098.

Consider G1U G65U, for which the self-cleavage was determined as 0.0644.

G1U G65A: the self-cleavage was 0.0898.

Turning to G1U G65C, the self-cleavage was found to be 0.0555.

In the case of G1C U46C, the self-cleavage was found to be 0.248.

As to G2A G47C, the self-cleavage stood at 0.176.

Take G2A G47A: the self-cleavage was 0.189.
